The data set concerns the molecule itself. Kind of data set: anti-Flag immunoprecipitation from metabolically labeled HeLa cells, SDS-PAGE and anti-Flag western blot. (In western blotting, separated proteins are transferred to a membrane and probed.)

Procedure: HeLa cells were grown to 80% confluency in 100 mm tissue culture dishes and transfected as above. At 24 hours post-infection, cells were incubated in serum-free and methionine-free medium for 30 minutes, and metabolically labeled with ³⁵S-cysteine/³⁵S-methionine (300 μCi/plate, Amersham) for 2 hr. After labeling, cells were washed twice with PBS and lysed immediately in PBS containing 1% Digitonin and protease inhibitors (Roche, Indianapolis, Ind.). The cell lysate was precleared with protein A/G agarose beads overnight and incubated with 3 μg of antibody for one hour, followed by one hour with protein A/G beads. Immunoprecipated proteins were washed five times with 0.25% Digitonin in PBS. All samples were boiled in Laemmli buffer and analyzed by SDS-PAGE gel electrophoresis. Gels were fixed, dried and exposed to Kodak BioMax MR film. Western blotting was accomplished using the WesternBreeze Chemiluminescent Detection System (Invitrogen), following semi-dry transfer to PVDF membranes (Millipore, Bedford, Mass.).

B1: MARCH-I (enzyme, not shown: small tags and cut ends)
chain: MTSSHVCCNFLNMWKKSKISTMYYLNQDAKLSNLFLQASSPTTGTAPRSQSRLSVCPSTQDICRICHCEGDEESPLITPCRCTGTLRFVHQSCLHQWIKSSDTRCCELCKYDFIMETKLKPLRKWEKLQMTTSERRKIFCSVTFHVIAITCVVWSLYVLIDRTAEEIKQGNDNGVLEWPFWTKLVVVAIGFTGGLVFMYVQCKVYVQLWRRLKAYNRVIFVQNCPDTAKKLEKNFSCNVNTDIKDAVVVPVPQTGANSLPSAEGGPPEVVSV
notes: Whole open reading frame expressed by transfection in HeLa cells; Flag-tagged in the immunoprecipitation; also called MARCHI-Flag; FLJ20668
Regarding B1, the binding result is recorded as “binds”.

Source of the values: US20050079613A1 (OREGON HEALTH AND SCIENCE UNIVERSITY, published 2005).
